This test addresses T1, Hdm2 210-304 (Homo sapiens, UniProt Q00987).
T1 construct: poly-His (thrombin-cleavable, from pET28a) (cleaved yes); made in house; host or cells: E. coli BL21 (DE3)
The test is described as follows: SPR binding of Arf library peptides to immobilized His-tagged Hdm2 210-304. As to conditions: 15 amino acid library peptides, binding for 10 minutes. Here is the method: Binding studies were performed using a Biacore 3000 surface plasmon resonance (SPR) instrument (Biacore, Inc.). A Tetra-His™ Antibody (Qiagen, Inc.; Cat. #34670) was covalently attached to a carboxymethylated gold surface (C-1 chip; Biacore, Inc.). The carboxymethyl groups on the surface were activated with N-ethyl-N′-(3-dimethylaminopropyl) carbodiimide (EDC) and N-hydroxysuccinimide (NHS) and the antibody was attached at pH 7.4 in 20 mM sodium phosphate buffer, 150 mM NaCl (PBS). Reactive sites remaining on the surface were blocked by reaction with ethanolamine. […] Binding was measured by flowing the non-His-tagged analyte through the reference and ligand-containing flow cells in sequence. […] Changes in the SPR response due to solvent differences and the injection process were monitored by injection of HBS-N buffer alone. […]
Two libraries of peptides 15 amino acids in length were synthesized based on the sequence of exon 1β of mouse p19^Arf and the entire sequence of human p14^Arf. […] The ability of these peptides to bind Hdm2 fragments was determined using the surface plasmon resonance (SPR) technique with a Biacore 3000 instrument. […] Relative binding affinity was judged on the basis of the maximal SPR signal detected after binding for 10 minutes.
(In general: SPR reads the build-up and loss of mass on a sensor chip optically.)

Where no end group is shown, it is not given here.

T1 sequence (Q00987 210-304): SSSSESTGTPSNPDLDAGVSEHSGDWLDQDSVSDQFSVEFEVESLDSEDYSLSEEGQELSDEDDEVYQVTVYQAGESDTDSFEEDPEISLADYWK

For the substance “mouse p19^Arf residues 31-45: 15 amino acid mouse p19^Arf library peptide spanning residues 31-45, contains the RRPR motif (RRPRTASCALAFVNM; UniProt Q64364 31-45, looked up, fragment)”, the “binding to Hdm2 210-304 (maximal SPR signal)” value is “bind”.
As for “human Arf residues 86-100: 15 amino acid human p14^Arf library peptide spanning residues 86-100, contains the NoLS RRPR (LRRPRHSHPTRARRC; not fully specified (N-terminus, C-terminus); UniProt Q8N726 86-100, looked up, fragment)”, the “binding to Hdm2 210-304 (maximal SPR signal)” value is on record as “binds”.

These data come from patent publication US20020045192A1, “Arf and HDM2 interaction domains and methods of use thereof” (St. Jude Children's Research Hospital, priority 2001, published 2002).
